Where a chain is given by its changes, count along the chain named.
B1: LK-RB2-3 (antibody, human IgG4 S228P, kappa, V domains shown)
VH: QLQLQQSDAELVKPGASVKISCKVSGYSFTDHTIHWMKQRPEQGLEWIGYIYPRDGSTKENEKFTGKATLTADKSSSTAYMQLTSLTSEDSAVYFCTGSGFDYWGQGTSLTVSS
VL: DIKMTQSPSSMYASLGERVTITCKASQDIKSYLSWFQQKPGKSPKTLIYRANRLVDGVPSRFSGSGSGQDYSLTINSLEYEDMEIYYCLQYDEFPYTFGGGTKLEIKR
B2: LK-RB2-4 (antibody, human IgG4 S228P, kappa, V domains shown)
VH: EVQLVESGGDLVKPGGSLKLSCAASGFTFSNYGMSWVRQTPDKRLEWVATISSGGSYTFYPDSVKGRFTISRDNAKNTLYLQMSSLKSEDTALYYCARDYYYGKTIEGYFDYWGQGTTLTVSS
VL: DIQMTQTTSSLSASLGDRVTISCRANQDISNYLNWYQQKPDGTVKLLIYYTSRLHSGVPSRFSGSGSGTDYSLTISDLEQEDIATYFCQQGNTLPWTFGGGTKLEIKR
B3: LK-RB2-14 (antibody, human IgG4 S228P, kappa, V domains shown)
VH: QVQLKQSGPGLVQPSQSLSITCTVSGFSLTSYGVHWVRQSPGKGLEWLGVIWRGGSTDYNAAFMSRLSITKDNSKSQVFFKMNSLQADDTAIYYCAKNEGDSTVVAWYFDVWGTGTTVTVSS
VL: DIQMTQTTSSLSASLGDRVTISCSASQGISNYLNWFQQKPDGTVKLLIYYTSSLHSGVPSRFSGSGSGTDYSLTISNLEPEDIATYYCQQYSKLPLTFGAGTKLELKR
B4: LK-RB2-19 (antibody, human IgG4 S228P, kappa, V domains shown)
VH: QVQLQQPGAELVKPGASVKLSCKASGYTFTSYWMHWVKQRPGQGLEWIGMIHPNSGGTNYNEKFKSKATLTVDKSSSTAYMQFSSLTSEDSAVYYCARCTVVALYYALDYWGQGTSVTVSS
VL: QIVLSQSPAILSASPGEKVTMTCRATSRVSYIHWFQQKPGSSPKPWIYVTSNLASGVPARFSGSGSGTSYSLTISKLEAEDVATYYCQQWSTNPLTFGAGTKLELKR
B5: LK-RB2-21 (antibody, human IgG4 S228P, kappa, V domains shown)
VH: EVQLVESGGDLVKPGGSLKLSCAASGFTFSSYGMSWVRQTPDKRLEWVATISSGGSYTYYPDSLKGRFTISRDNAKSTLYLQMSSLKSEDTAKYYCARPYYDYIFYAIDYWGQGTSVTVSS
VL: DIQMNQSPSSLSASLGDTITITCHASQNINVWLSWYQQKPGNIPKLLIYKASNLHTGVPSRFSGSGSGTGFTLTISSLQPEDIATYYCQQGQSYPLTFGGGTKLEIKR
B6: LK-RB2-22 (antibody, human IgG4 S228P, kappa, V domains shown)
VH: QIQLVQSGPELKKTGETVKISCKASGYTFTTYGMSWVKQAPGKGLKWMGWINIYSGVPTYADDFKGRFAFSLETSASTAYLQINNLKNEDTATYFCARRADYDGYYFDYWGQGTTLTVSS
VL: NIVMTQTPKFLLVSAGDRVTITCRASQSVTNDVAWYQQRPGQSLKLLIYYASNRYTGVPDRFTGSGYGTDFTFTISTVQAEDLAVYFCQQGYSSPFTFGSGTKLEIKR
B7: LK-RB2-23 (antibody, human IgG4 S228P, kappa, V domains shown)
VH: B6 VH with T14P, A100G
VL: NIVLIQSAATLSVTPGDSVSLSCRASQSLSNGLHWYQQKSHESPRLLIKYGSQSISGIPSRFSGSGSGTDFTLSINSVETEDFGMYFCQQSDSWPHTFGSGTKLEIKR
B8: LK-RB2-33 (antibody, human IgG4 S228P, kappa, V domains shown)
VH: EVQLQQSGVELVRPGALVKLSCKASGFNIKDYYMHWVKQRPEQGLEWIGWIDPEKGDTIYGPKFQGKASITADTSSNTAYLQLSSLTSEDTAVYYCSRGPNYGSSYAFAYWGQGTLVTVSA
VL: DVVMTQSHKFMSTSVGDRVTITCKASQDVSNAVAWYQQKPGQSPKLLIYSASYRYTGVPDRFTGSGSGTDFTFTISSMQAEDLAVYYCQQHYSLPWTFGGGTKLEIKR
B9: LK-RB2-35 (antibody, human IgG4 S228P, kappa, V domains shown)
VH: EVQLQQSGPELVKPGASVKISCKASGYTFTDYNMHWVKQSHGKSLEWIGSIYPYNGGSDYNQKFKSKATLTVDNSSSTAYMELRSLTSEDSAVYYCASELTGLYAMDYWGQGTSVTVSS
VL: DIVMTQSPATLSVTPGDRVSLSCRASQSISDYLHWYQQKSHESPRLLIKYASQSISGIPSRFSGSGSGSDFTLSINSVEPEDVGVYYCQTGHSFPYTFGGGTKLEIKR
B10: LK-RB2-36 (antibody, human IgG4 S228P, kappa, V domains shown)
VH: QVQLQQSGAELVRPGASVKMSCKASGYTFTNYWIGWAKQRPGHGLEWIGDIYPGGTYTGYNEKFKGKATLTADKSSSTAYMQFSSLTSEDSAIYYCARRMDYDGYAMDYWGQGTSVTVSS
VL: DIVLTQSPASLSVTPGDSVSLSCRASQSISNNLHWYQQKSHESPRLLIKYASQSISGIPSRFSGSGSGTDFTLSINSVETEDFGMYFCQQSNSWPLTFGAGTKLELKR
B11: LK-RB2-37 (antibody, human IgG4 S228P, kappa, V domains shown)
VH: B6 VH with L11V, T14P, I53T, A76V, A92S, A100R, Y106A, F107M, T115S, L116V
VL: DIVMSQSPSSLAVSVGEKVTMSCKSSQSLLYSGNQKNYLAWYQQKPGQSPKLLIYWASARESGVPDRFTGSGSGTDFTLTISSVKAEDLAVYYCQQYYTYPFTFGSGTKLEIKR
B12: LK-RB2-40 (antibody, human IgG4 S228P, kappa, V domains shown)
VH: DVQLQESGPGLVKPSQSLSLTCSVTGYSITSGYYWNWIRQFPGNKLEWMAYISYDGSNNYNPSLKNRISITRDTSKNQFFLKLNSVTTEDTATYYCAREEGTAQATLGYFDYWGQGTTLTVSS
VL: DIQMTQSPASLSVSVGETVTITCRASENIYSNLAWYQQKQGKSPQLLVYAATNLADGVPSRFSGSGSGTQYSLKINSLQSEDFGSYYCQHFWDTPFTFGSGTKLEIKR
B13: LK-RB2-41 (antibody, human IgG4 S228P, kappa, V domains shown)
VH: EVQLQLSGPELVKPGASVKMSCKASGYTFTDYNMHWVKQSHGKSLEWIGYINPNNGGTTYNQKFKGKATLTVNKSSSTAYMELRSLTSEDSAVYYCARAPYYGSSYLLAYWGQGTLVTVSA
VL: B8 VL with V2I, T20S, N31T, M78V, V85I, L94I
B14: LK-RB2-45 (antibody, human IgG4 S228P, kappa, V domains shown)
VH: B6 VH with T14P, A40T, K46Q, I53V, T74A, T93S, A100G, Y105H
VL: B9 VL with H34N, A51V, V83I, T90N, S93N, Y96L, I106L
B15: J19.h1 (antibody, human IgG4 S228P, kappa, V domains shown)
VH: QITLKESGPTLVKPTQTLTLTCTFSGFSLNTYAMGVSWIRQPPGKALEWLASIWWNGNKYNNPSLKSRLTVTKDTSKNQVVLTMTNMDPVDTATYYCAHSRIIRFTDYVMDAWGQGTLVTVSS
VL: DIQMTQSPSSLSTSVGDRVTITCRASEDIYNDLAWYQQKPGKAPKLLIYNANSLHTGVASRFSGSGSGTDFTFTISSLQPEDVATYFCQQYYDYPLTFGQGTKLEIKR
B16: LK-RB1-16 (antibody, human IgG4 S228P, kappa, V domains shown)
VH: QVQLKESGPGLVAPSQSLSITCTVSGFSLISNAISWVRQPPGKGLEWLGVIWGDGNTIYHSALRSRLTISKDNSKSQVFLKLNSLQIDDTATYYCAKANWDGYYFDYWGQGTTLTVSS
VL: B5 VL with N28S, I29V, N30D, V31F, S34N, Y49S, G70T, G100S
notes: Anti-LILRB1 antibody from mouse hybridoma; parental antibody of LK-RB1-16.h1 to h3
B17: LK-RB1-16.h2 (antibody, human IgG4, kappa, V domains shown)
VH: QVQLQESGPGLVKPSETLSLTCTVSGFSLISNAISWIRQPPGKGLEWLGVIWGDGNTIYHSALRSRLTISKDTSKNQVFLKLSSVTAADTAVYYCAKANWDGYYFDYWGQGTTVTVSS
VL: DIQMTQSPSTLSASVGDRVTITCHASQSVDFWLNWYQQKPGKAPKLLIYKASNLHTGVPSRFSGSGSGTEFTLTISSLQPDDFATYYCQQGQSYPLTFGQGTKLEIKR
notes: Humanized form of LK-RB1-16
B18: LK-RB1-16.h1 (antibody, human IgG4, kappa, V domains shown)
VH: B17 VH with L67V, V78F, F79S
VL: B17 VL
notes: Humanized form of LK-RB1-16
B19: LK-RB1-16.h3 (antibody, human IgG4, kappa, V domains shown)
VH: B17 VH
VL: B17 VL with Y49S
notes: Humanized form of LK-RB1-16

The binders below were run against T1, human LILRB2 expressed on CHOK1 cells (CHOK1-hLILRB2) (human, UniProt Q8N423 22-597) (assay: FACS binding to CHOK1-hLILRB2 cells).
T1 construct: whole, on cells; also called CHOK1-LILRB2
T1 sequence (Q8N423 22-597): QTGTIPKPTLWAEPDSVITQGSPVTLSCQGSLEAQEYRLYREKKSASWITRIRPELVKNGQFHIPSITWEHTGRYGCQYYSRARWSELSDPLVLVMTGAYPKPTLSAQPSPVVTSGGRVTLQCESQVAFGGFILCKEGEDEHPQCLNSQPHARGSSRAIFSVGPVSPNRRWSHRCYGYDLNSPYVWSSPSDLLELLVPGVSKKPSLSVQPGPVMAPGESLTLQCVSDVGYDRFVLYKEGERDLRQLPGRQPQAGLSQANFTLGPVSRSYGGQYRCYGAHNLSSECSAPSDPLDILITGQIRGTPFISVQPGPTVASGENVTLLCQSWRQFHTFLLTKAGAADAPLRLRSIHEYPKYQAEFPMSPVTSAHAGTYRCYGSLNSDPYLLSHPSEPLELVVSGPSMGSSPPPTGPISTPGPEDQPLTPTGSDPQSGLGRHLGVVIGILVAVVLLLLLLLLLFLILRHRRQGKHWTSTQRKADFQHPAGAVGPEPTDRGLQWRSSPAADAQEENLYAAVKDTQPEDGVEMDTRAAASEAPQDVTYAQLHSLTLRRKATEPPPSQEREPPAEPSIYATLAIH

| Binder | EC50 |
| --- | --- |
| B1 | 400 pM |
| B2 | 1610 pM |
| B3 | 290 pM |
| B4 | 2340 pM |
| B5 | 2280 pM |
| B6 | 220 pM |
| B7 | 260 pM |
| B8 | 910 pM |
| B9 | 180 pM |
| B10 | 720 pM |
| B11 | 340 pM |
| B12 | 530 pM |
| B13 | 370 pM |
| B14 | 300 pM |
| B15 | 150 pM |

What follows are binders tested against T1, human LILRB2 expressed on CHOK1 cells … (assay: cell based RBA, flow cytometry: blocking of HLA-G binding to CHOK1-hLILRB2 cells).

| Binder | EC50 | Top Inhibition |
| --- | --- | --- |
| B1 | 946 pM | 73.2% |
| B2 | 1710 pM | 65.2% |
| B3 | 231 pM | 73.8% |
| B4 | 50300 pM | 18.1% |
| B5 | 1610 pM | 62.4% |
| B6 | 112 pM | 71.1% |
| B7 | 198 pM | 71.2% |
| B8 | 1870 pM | 90% |
| B9 | 203 pM | 88.4% |
| B10 | 506 pM | 80.6% |
| B11 | 268 pM | 77.3% |
| B12 | 444 pM | 79.4% |
| B13 | 157 pM | 80.1% |
| B14 | 67.2 pM | 81.6% |
| B15 | 88.9 pM | 68.7% |

What follows are binders tested against T2, human LILRB1-his (human, UniProt Q8NHL6 24-458, limits assumed) (assay: SPR (Biacore 8K), antibody captured via Fc, LILRB1-his as analyte, 1:1 model).
T2 construct: Analyte of the Biacore run; not shown: His tag
T2 sequence (Q8NHL6 24-458 limits assumed): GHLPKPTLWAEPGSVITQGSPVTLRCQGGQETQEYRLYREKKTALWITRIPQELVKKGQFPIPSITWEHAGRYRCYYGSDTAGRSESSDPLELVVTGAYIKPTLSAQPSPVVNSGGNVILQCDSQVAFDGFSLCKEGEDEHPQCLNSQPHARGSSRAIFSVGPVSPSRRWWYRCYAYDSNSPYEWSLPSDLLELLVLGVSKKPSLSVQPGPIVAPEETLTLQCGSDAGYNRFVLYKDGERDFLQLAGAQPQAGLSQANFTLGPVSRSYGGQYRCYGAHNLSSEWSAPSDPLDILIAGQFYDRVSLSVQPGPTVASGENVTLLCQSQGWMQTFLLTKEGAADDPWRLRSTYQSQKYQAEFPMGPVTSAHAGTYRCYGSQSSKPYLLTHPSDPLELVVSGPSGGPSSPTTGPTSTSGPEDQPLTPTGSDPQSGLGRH

| Binder | Kd | koff | kon |
| --- | --- | --- | --- |
| B16 | 194 pM | 0.000108 s⁻¹ | 556000 M⁻¹ s⁻¹ |
| B17 | 235 pM | 0.000112 s⁻¹ | 476000 M⁻¹ s⁻¹ |
| B18 | 507 pM | 0.0002 s⁻¹ | 394000 M⁻¹ s⁻¹ |
| B19 | 240 pM | 0.000107 s⁻¹ | 444000 M⁻¹ s⁻¹ |

What follows are binders tested against T3, human LILRB1 expressed on CHOK1 cells (CHOK1-hLILRB1) (human, UniProt Q8NHL6 24-650) (assay: FACS binding to CHOK1-hLILRB1 cells).
T3 construct: whole, on cells; also called CHOK1-LILRB1
T3 sequence (Q8NHL6 24-650): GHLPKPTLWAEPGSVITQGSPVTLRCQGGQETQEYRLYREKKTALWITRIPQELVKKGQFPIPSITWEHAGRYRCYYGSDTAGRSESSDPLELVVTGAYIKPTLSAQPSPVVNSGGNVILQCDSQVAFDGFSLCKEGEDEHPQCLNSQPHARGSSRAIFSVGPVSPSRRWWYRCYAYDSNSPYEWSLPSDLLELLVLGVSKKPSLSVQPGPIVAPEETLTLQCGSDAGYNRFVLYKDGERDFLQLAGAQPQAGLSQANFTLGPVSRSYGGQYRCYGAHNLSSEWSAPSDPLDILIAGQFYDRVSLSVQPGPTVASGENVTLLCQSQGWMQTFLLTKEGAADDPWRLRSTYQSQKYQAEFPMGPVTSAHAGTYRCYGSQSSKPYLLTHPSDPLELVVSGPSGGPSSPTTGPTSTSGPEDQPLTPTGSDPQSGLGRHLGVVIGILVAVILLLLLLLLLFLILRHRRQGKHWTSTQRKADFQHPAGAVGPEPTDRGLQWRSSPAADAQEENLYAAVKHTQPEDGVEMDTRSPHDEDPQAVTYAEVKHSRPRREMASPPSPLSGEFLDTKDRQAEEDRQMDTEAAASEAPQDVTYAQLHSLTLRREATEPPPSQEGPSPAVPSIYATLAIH

| Binder | binding result | EC50 |
| --- | --- | --- |
| B1 | no binding |  |
| B2 | no binding |  |
| B3 | no binding |  |
| B4 |  | 7060 pM |
| B5 | no binding |  |
| B6 |  | 45300 pM |
| B7 |  | 65500 pM |
| B8 | no binding |  |
| B9 | no binding |  |
| B10 | no binding |  |
| B11 | no binding |  |
| B12 | no binding |  |
| B13 | no binding |  |
| B14 |  | 1480 pM |
| B15 | no binding |  |
